Laboratory results from the supplement of paper PMC9732359.
± gives the uncertainty stated by the source.

Assay: protein stability index of a GFP-peptide fusion (yeast GPS) (PSI 1-4); higher = more stable; sorted into four equal gates, so the index is relative within each strain
Outline: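 Sequencing reads from sorted gates were used to score each peptide. The library consisted of tiled 17-residue yeast protein peptides fused downstream of GFP on a Cherry-expressing plasmid, pooled and carried in yeast. Mid-log cultures in leucine-free medium were split into four equal gates by GFP/Cherry ratio, and each gate's plasmids were PCR-amplified and Illumina-sequenced. The protein stability index adds up, over all gates, the read frequency multiplied by the gate number.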

| Sequence | protein stability index (doa10∆) | protein stability index (pdr5∆) | protein stability index (san1∆) | protein stability index (ubr1∆) |
| --- | --- | --- | --- | --- |
| MLVKAVANSTKAAFIRV [RPT3] | 1.97 ± 0.05 | 1.5 ± 0.047 | 1.38 ± 0.11 | 1.27 ± 0.036 |
| RRREQTTYSVDDYYKEI [ISW2] | 2 ± 0.044 | 2.55 ± 0.035 | 1.91 ± 0.071 | 2.87 ± 0.044 |
| KEDHPLEFYKDKFFNEV [SIR3] | 3.21 ± 0.086 | 3.2 ± 0.05 | 3.34 ± 0.055 | 3.43 ± 0.084 |
| KKPLSMALNKVLITDHI [CDC53] | 1.93 ± 0.04 | 2.24 ± 0.038 | 2.18 ± 0.05 | 2.12 ± 0.028 |
| KKIFGTGKRLAKKVARR [RPS24A] | 3.52 ± 0.064 | 3.34 ± 0.057 | 3.31 ± 0.039 | 3.42 ± 0.039 |
| ECPAIPIFNYIFTEKIY [YJL039C/NUP192] | 1.34 ± 0.035 | 1.46 ± 0.038 | 1.43 ± 0.071 | 1.4 ± 0.034 |
| NYTGWKAISVGANTSAA [PRE9] | 1.23 ± 0.079 | 1.36 ± 0.076 | 1.24 ± 0.2 | 1.17 ± 0.062 |
| TKYFEPTSTENNKKVVG [ECM29] | 2.87 ± 0.14 | 3.19 ± 0.17 | 2.82 ± 0.13 | 2.97 ± 0.062 |
| NVKYRAVVFKPFKGEVV [RPB7] | 2.96 ± 0.12 | 2.85 ± 0.047 | 2.43 ± 0.075 | 2.86 ± 0.075 |
| KSTTPYVSALKRINKFL [POP7] | 2.04 ± 0.047 | 1.55 ± 0.036 | 2 ± 0.067 | 1.63 ± 0.034 |
| QAQAQAQAQAQAQAQAH [GAL11] | 2.84 ± 0.071 | 3.05 ± 0.084 | 2.84 ± 0.084 | 3.1 ± 0.1 |
| NEYVAKVSAREKSAYKF [FAS2] | 3.23 ± 0.082 | 3.16 ± 0.073 | 3.04 ± 0.093 | 3.32 ± 0.061 |
| VRSLPKEEQPKQIIVTR [PRP8] | 2.38 ± 0.1 | 2.09 ± 0.25 | 2.21 ± 0.12 | 1.98 ± 0.072 |
| NVGELIEKNVMESIGSD [RRP4] | 2.54 ± 0.059 | 3.03 ± 0.075 | 2.62 ± 0.098 | 2.39 ± 0.065 |
| LDRELLKPSMSVALHRH [RPT3] | 2.98 ± 0.082 | 2.71 ± 0.1 | 3.07 ± 0.071 | 2.7 ± 0.16 |
| RTLRRKGDINPEVSMIR [RPB2] | 3.11 ± 0.16 | 3.39 ± 0.13 | 2.79 ± 0.21 | 3.12 ± 0.076 |
| AKKRKTLILIQNPENLL [SIR3] | 3.04 ± 0.094 | 2.54 ± 0.099 | 3.11 ± 0.092 | 2.78 ± 0.096 |
| RNQRKGAGSIFTSHTRL [RPL2A] | 2.03 ± 0.054 | 3.12 ± 0.067 | 2.73 ± 0.05 | 3.09 ± 0.059 |
| RENALYDYYALQLLPLQ [SNF2] | 2.63 ± 0.078 | 2.74 ± 0.045 | 2.72 ± 0.056 | 2.77 ± 0.042 |
| QKLHKVKKASGEIVSIN [RPL20A] | 2.98 ± 0.076 | 2.61 ± 0.057 | 3.07 ± 0.042 | 2.8 ± 0.056 |
| ETLGDILKRDFELVSDL [ECM29] | 3.27 ± 0.14 | 3.39 ± 0.17 | 2.95 ± 0.22 | 3.08 ± 0.17 |
| GKLKRCSRCGSVTRAGN [SIN4] | – | – | – | 3.34 ± 0.16 |
| KNTIDFERFPSPSTSAN [RPN4] | 2.87 ± 0.09 | 2.95 ± 0.064 | 2.72 ± 0.082 | 3.03 ± 0.056 |
| ASIGQAAEQQSKAFKES [SRP54] | 3.45 ± 0.19 | 3.33 ± 0.17 | 3.14 ± 0.096 | 3.16 ± 0.082 |
| LALEIIVRPAKGVATTR [RRP46] | 2.09 ± 0.058 | 2.18 ± 0.065 | 1.86 ± 0.078 | 2.25 ± 0.051 |
| NLDSSITQDGKFAYKID [YMR129W/POM152] | 2.38 ± 0.065 | 2.69 ± 0.064 | 2.26 ± 0.08 | 2.71 ± 0.05 |
| DEDEDEDEDDDDDDDED [QCR6] | 2.25 ± 0.039 | 1.96 ± 0.036 | 2.05 ± 0.047 | 1.98 ± 0.05 |
